Where “and” joins values, the source holds several entries; their conditions need not be identical. Identical values can stand only once. Like-named read-outs stand apart in the source and are kept apart here.
How the values were obtained:
AUC [1] = target: the molecule itself; experiment: AUC
AUC [2] = target: the molecule itself; experiment: AUC; remark: listed apart in the source

Ac-IDFISTYITKIDKKIQSIEDIIHQIENKISEIKQLIK-NH2 [γ_(52–88)KI]
stoichiometry N (AUC [1]): ~2 and ~4 | Kd (AUC [2]): 4.95 µM | stoichiometry N (AUC [2]): 2 and 4

Source: PMC2836930 (Biomacromolecules, 2008)
